Laboratory results: US20240209076A1 (KODIAK SCIENCES, published 2024)

Target: recombinant human IL-6 (human, UniProt P05231 30-212)
Experiment: SPR, IL-6 on CM5 chip, Fab lysate, 25 C

recombinant human IL-6, sequence (P05231 30-212 limits assumed): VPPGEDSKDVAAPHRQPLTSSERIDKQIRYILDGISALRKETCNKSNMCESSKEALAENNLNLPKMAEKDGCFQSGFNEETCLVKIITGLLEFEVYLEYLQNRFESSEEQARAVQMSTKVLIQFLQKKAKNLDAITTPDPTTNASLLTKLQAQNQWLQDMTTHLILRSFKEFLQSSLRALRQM

Row | Binder | koff
1 | anti-IL-6 Fab, light chain S26H (Fab, V domains shown, see m39) VH: EVQLVESGGGLVQPGGSLRLSCAASGFTFSPFAMSWVRQAPGKGLEWVAKISPGGSWTYYSDTVTGRFTFSLDTSKSTAYLQMNSLRAEDTAVYYCARQLWGYYALDIWGQGTLVTVSS VL: DIQLTQSPSSLSASVGDRVTITCSAHISVSYMYWYQQKPGKAPKLLIYDMSNLASGVPSRFSGSGSGTDFTLTISSLQPEDFATYYCMQWSGYPYTFGQGTKVEIK | 0.00427 s⁻¹
2 | anti-IL-6 Fab, light chain S28E (Fab, V domains shown, see m39) VH: EVQLVESGGGLVQPGGSLRLSCAASGFTFSPFAMSWVRQAPGKGLEWVAKISPGGSWTYYSDTVTGRFTFSLDTSKSTAYLQMNSLRAEDTAVYYCARQLWGYYALDIWGQGTLVTVSS VL: DIQLTQSPSSLSASVGDRVTITCSASIEVSYMYWYQQKPGKAPKLLIYDMSNLASGVPSRFSGSGSGTDFTLTISSLQPEDFATYYCMQWSGYPYTFGQGTKVEIK | 0.00451 s⁻¹
3 | anti-IL-6 Fab, light chain S51D (Fab, V domains shown, see m39) VH: EVQLVESGGGLVQPGGSLRLSCAASGFTFSPFAMSWVRQAPGKGLEWVAKISPGGSWTYYSDTVTGRFTFSLDTSKSTAYLQMNSLRAEDTAVYYCARQLWGYYALDIWGQGTLVTVSS VL: DIQLTQSPSSLSASVGDRVTITCSASISVSYMYWYQQKPGKAPKLLIYDMDNLASGVPSRFSGSGSGTDFTLTISSLQPEDFATYYCMQWSGYPYTFGQGTKVEIK | 0.00466 s⁻¹
4 | anti-IL-6 Fab, light chain S30A (Fab, V domains shown, see m39) VH: EVQLVESGGGLVQPGGSLRLSCAASGFTFSPFAMSWVRQAPGKGLEWVAKISPGGSWTYYSDTVTGRFTFSLDTSKSTAYLQMNSLRAEDTAVYYCARQLWGYYALDIWGQGTLVTVSS VL: DIQLTQSPSSLSASVGDRVTITCSASISVAYMYWYQQKPGKAPKLLIYDMSNLASGVPSRFSGSGSGTDFTLTISSLQPEDFATYYCMQWSGYPYTFGQGTKVEIK | 0.00654 s⁻¹
5 | anti-IL-6 Fab, light chain S26K (Fab, V domains shown, see m39) VH: EVQLVESGGGLVQPGGSLRLSCAASGFTFSPFAMSWVRQAPGKGLEWVAKISPGGSWTYYSDTVTGRFTFSLDTSKSTAYLQMNSLRAEDTAVYYCARQLWGYYALDIWGQGTLVTVSS VL: DIQLTQSPSSLSASVGDRVTITCSAKISVSYMYWYQQKPGKAPKLLIYDMSNLASGVPSRFSGSGSGTDFTLTISSLQPEDFATYYCMQWSGYPYTFGQGTKVEIK | 0.00441 s⁻¹
6 | anti-IL-6 Fab, light chain S51K (Fab, V domains shown, see m39) VH: EVQLVESGGGLVQPGGSLRLSCAASGFTFSPFAMSWVRQAPGKGLEWVAKISPGGSWTYYSDTVTGRFTFSLDTSKSTAYLQMNSLRAEDTAVYYCARQLWGYYALDIWGQGTLVTVSS VL: DIQLTQSPSSLSASVGDRVTITCSASISVSYMYWYQQKPGKAPKLLIYDMKNLASGVPSRFSGSGSGTDFTLTISSLQPEDFATYYCMQWSGYPYTFGQGTKVEIK | 0.00461 s⁻¹
7 | anti-IL-6 Fab, light chain S51R (Fab, V domains shown, see m39) VH: EVQLVESGGGLVQPGGSLRLSCAASGFTFSPFAMSWVRQAPGKGLEWVAKISPGGSWTYYSDTVTGRFTFSLDTSKSTAYLQMNSLRAEDTAVYYCARQLWGYYALDIWGQGTLVTVSS VL: DIQLTQSPSSLSASVGDRVTITCSASISVSYMYWYQQKPGKAPKLLIYDMRNLASGVPSRFSGSGSGTDFTLTISSLQPEDFATYYCMQWSGYPYTFGQGTKVEIK | 0.00467 s⁻¹
8 | anti-IL-6 Fab, light chain S55L (Fab, V domains shown, see m39) VH: EVQLVESGGGLVQPGGSLRLSCAASGFTFSPFAMSWVRQAPGKGLEWVAKISPGGSWTYYSDTVTGRFTFSLDTSKSTAYLQMNSLRAEDTAVYYCARQLWGYYALDIWGQGTLVTVSS VL: DIQLTQSPSSLSASVGDRVTITCSASISVSYMYWYQQKPGKAPKLLIYDMSNLALGVPSRFSGSGSGTDFTLTISSLQPEDFATYYCMQWSGYPYTFGQGTKVEIK | 0.00507 s⁻¹
9 | anti-IL-6 Fab, light chain S30G (Fab, V domains shown, see m39) VH: EVQLVESGGGLVQPGGSLRLSCAASGFTFSPFAMSWVRQAPGKGLEWVAKISPGGSWTYYSDTVTGRFTFSLDTSKSTAYLQMNSLRAEDTAVYYCARQLWGYYALDIWGQGTLVTVSS VL: DIQLTQSPSSLSASVGDRVTITCSASISVGYMYWYQQKPGKAPKLLIYDMSNLASGVPSRFSGSGSGTDFTLTISSLQPEDFATYYCMQWSGYPYTFGQGTKVEIK | 0.00677 s⁻¹
10 | anti-IL-6 Fab, light chain S28W (Fab, V domains shown, see m39) VH: EVQLVESGGGLVQPGGSLRLSCAASGFTFSPFAMSWVRQAPGKGLEWVAKISPGGSWTYYSDTVTGRFTFSLDTSKSTAYLQMNSLRAEDTAVYYCARQLWGYYALDIWGQGTLVTVSS VL: DIQLTQSPSSLSASVGDRVTITCSASIWVSYMYWYQQKPGKAPKLLIYDMSNLASGVPSRFSGSGSGTDFTLTISSLQPEDFATYYCMQWSGYPYTFGQGTKVEIK | 0.00398 s⁻¹
11 | anti-IL-6 Fab, light chain S55I (Fab, V domains shown, see m39) VH: EVQLVESGGGLVQPGGSLRLSCAASGFTFSPFAMSWVRQAPGKGLEWVAKISPGGSWTYYSDTVTGRFTFSLDTSKSTAYLQMNSLRAEDTAVYYCARQLWGYYALDIWGQGTLVTVSS VL: DIQLTQSPSSLSASVGDRVTITCSASISVSYMYWYQQKPGKAPKLLIYDMSNLAIGVPSRFSGSGSGTDFTLTISSLQPEDFATYYCMQWSGYPYTFGQGTKVEIK | 0.00505 s⁻¹

Further lines, results first:

Row | koff | Binder
12 | 0.0051 s⁻¹ | anti-IL-6 Fab, light chain S55W (Fab, V domains shown, see m39) VH: EVQLVESGGGLVQPGGSLRLSCAASGFTFSPFAMSWVRQAPGKGLEWVAKISPGGSWTYYSDTVTGRFTFSLDTSKSTAYLQMNSLRAEDTAVYYCARQLWGYYALDIWGQGTLVTVSS VL: DIQLTQSPSSLSASVGDRVTITCSASISVSYMYWYQQKPGKAPKLLIYDMSNLAWGVPSRFSGSGSGTDFTLTISSLQPEDFATYYCMQWSGYPYTFGQGTKVEIK
13 | 0.00478 s⁻¹ | anti-IL-6 Fab, light chain T96L (Fab, V domains shown, see m39) VH: EVQLVESGGGLVQPGGSLRLSCAASGFTFSPFAMSWVRQAPGKGLEWVAKISPGGSWTYYSDTVTGRFTFSLDTSKSTAYLQMNSLRAEDTAVYYCARQLWGYYALDIWGQGTLVTVSS VL: DIQLTQSPSSLSASVGDRVTITCSASISVSYMYWYQQKPGKAPKLLIYDMSNLASGVPSRFSGSGSGTDFTLTISSLQPEDFATYYCMQWSGYPYLFGQGTKVEIK
14 | 0.00559 s⁻¹ | anti-IL-6 Fab, light chain S91A (Fab, V domains shown, see m39) VH: EVQLVESGGGLVQPGGSLRLSCAASGFTFSPFAMSWVRQAPGKGLEWVAKISPGGSWTYYSDTVTGRFTFSLDTSKSTAYLQMNSLRAEDTAVYYCARQLWGYYALDIWGQGTLVTVSS VL: DIQLTQSPSSLSASVGDRVTITCSASISVSYMYWYQQKPGKAPKLLIYDMSNLASGVPSRFSGSGSGTDFTLTISSLQPEDFATYYCMQWAGYPYTFGQGTKVEIK
15 | 0.00516 s⁻¹ | anti-IL-6 Fab, light chain S55V (Fab, V domains shown, see m39) VH: EVQLVESGGGLVQPGGSLRLSCAASGFTFSPFAMSWVRQAPGKGLEWVAKISPGGSWTYYSDTVTGRFTFSLDTSKSTAYLQMNSLRAEDTAVYYCARQLWGYYALDIWGQGTLVTVSS VL: DIQLTQSPSSLSASVGDRVTITCSASISVSYMYWYQQKPGKAPKLLIYDMSNLAVGVPSRFSGSGSGTDFTLTISSLQPEDFATYYCMQWSGYPYTFGQGTKVEIK
16 | 0.00423 s⁻¹ | anti-IL-6 Fab, light chain T96I (Fab, V domains shown, see m39) VH: EVQLVESGGGLVQPGGSLRLSCAASGFTFSPFAMSWVRQAPGKGLEWVAKISPGGSWTYYSDTVTGRFTFSLDTSKSTAYLQMNSLRAEDTAVYYCARQLWGYYALDIWGQGTLVTVSS VL: DIQLTQSPSSLSASVGDRVTITCSASISVSYMYWYQQKPGKAPKLLIYDMSNLASGVPSRFSGSGSGTDFTLTISSLQPEDFATYYCMQWSGYPYIFGQGTKVEIK
17 | 0.00549 s⁻¹ | anti-IL-6 Fab, light chain S91K (Fab, V domains shown, see m39) VH: EVQLVESGGGLVQPGGSLRLSCAASGFTFSPFAMSWVRQAPGKGLEWVAKISPGGSWTYYSDTVTGRFTFSLDTSKSTAYLQMNSLRAEDTAVYYCARQLWGYYALDIWGQGTLVTVSS VL: DIQLTQSPSSLSASVGDRVTITCSASISVSYMYWYQQKPGKAPKLLIYDMSNLASGVPSRFSGSGSGTDFTLTISSLQPEDFATYYCMQWKGYPYTFGQGTKVEIK
18 | 0.00543 s⁻¹ | anti-IL-6 Fab, light chain V29L (Fab, V domains shown, see m39) VH: EVQLVESGGGLVQPGGSLRLSCAASGFTFSPFAMSWVRQAPGKGLEWVAKISPGGSWTYYSDTVTGRFTFSLDTSKSTAYLQMNSLRAEDTAVYYCARQLWGYYALDIWGQGTLVTVSS VL: DIQLTQSPSSLSASVGDRVTITCSASISLSYMYWYQQKPGKAPKLLIYDMSNLASGVPSRFSGSGSGTDFTLTISSLQPEDFATYYCMQWSGYPYTFGQGTKVEIK
19 | 0.00504 s⁻¹ | anti-IL-6 Fab, light chain T96V (Fab, V domains shown, see m39) VH: EVQLVESGGGLVQPGGSLRLSCAASGFTFSPFAMSWVRQAPGKGLEWVAKISPGGSWTYYSDTVTGRFTFSLDTSKSTAYLQMNSLRAEDTAVYYCARQLWGYYALDIWGQGTLVTVSS VL: DIQLTQSPSSLSASVGDRVTITCSASISVSYMYWYQQKPGKAPKLLIYDMSNLASGVPSRFSGSGSGTDFTLTISSLQPEDFATYYCMQWSGYPYVFGQGTKVEIK
20 | 0.00508 s⁻¹ | anti-IL-6 Fab, light chain S55Y (Fab, V domains shown, see m39) VH: EVQLVESGGGLVQPGGSLRLSCAASGFTFSPFAMSWVRQAPGKGLEWVAKISPGGSWTYYSDTVTGRFTFSLDTSKSTAYLQMNSLRAEDTAVYYCARQLWGYYALDIWGQGTLVTVSS VL: DIQLTQSPSSLSASVGDRVTITCSASISVSYMYWYQQKPGKAPKLLIYDMSNLAYGVPSRFSGSGSGTDFTLTISSLQPEDFATYYCMQWSGYPYTFGQGTKVEIK
21 | 0.0052 s⁻¹ | anti-IL-6 Fab, light chain S55P (Fab, V domains shown, see m39) VH: EVQLVESGGGLVQPGGSLRLSCAASGFTFSPFAMSWVRQAPGKGLEWVAKISPGGSWTYYSDTVTGRFTFSLDTSKSTAYLQMNSLRAEDTAVYYCARQLWGYYALDIWGQGTLVTVSS VL: DIQLTQSPSSLSASVGDRVTITCSASISVSYMYWYQQKPGKAPKLLIYDMSNLAPGVPSRFSGSGSGTDFTLTISSLQPEDFATYYCMQWSGYPYTFGQGTKVEIK
22 | 0.00526 s⁻¹ | anti-IL-6 Fab, light chain S55R (Fab, V domains shown, see m39) VH: EVQLVESGGGLVQPGGSLRLSCAASGFTFSPFAMSWVRQAPGKGLEWVAKISPGGSWTYYSDTVTGRFTFSLDTSKSTAYLQMNSLRAEDTAVYYCARQLWGYYALDIWGQGTLVTVSS VL: DIQLTQSPSSLSASVGDRVTITCSASISVSYMYWYQQKPGKAPKLLIYDMSNLARGVPSRFSGSGSGTDFTLTISSLQPEDFATYYCMQWSGYPYTFGQGTKVEIK
